Results: the supplement of paper PMC9732359
± gives the uncertainty stated by the source.

Assay: protein stability index of a GFP-peptide fusion (yeast GPS) (PSI 1-4); higher = more stable; sorted into four equal gates, so the index is relative within each strain
Summary of the method: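 Tiled 17-residue peptides from yeast proteins were fused downstream of GFP on a plasmid that also expresses Cherry, and the pooled library was carried in yeast. Mid-log cultures grown in leucine-free medium were sorted into four equal gates by GFP/Cherry fluorescence ratio. Plasmids from each gate were PCR-amplified and Illumina-sequenced, and reads were assigned to strains by barcodes. Each peptide's protein stability index is the sum, over gates, of the gate's read frequency multiplied by its gate number.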

Sequence	protein stability index (doa10∆)	protein stability index (pdr5∆)	protein stability index (san1∆)	protein stability index (ubr1∆)
DSNMDSISSVVSEDLLD [RPN4]	2.3 ± 0.073	2.31 ± 0.056	2.76 ± 0.05	2.45 ± 0.032
GDYDSHDISRYVRAKFL [PRP8]	2.08 ± 0.077	2.11 ± 0.086	1.66 ± 0.16	1.43 ± 0.055
QVIVDIFSVHGNTVVDG [YCG1]	2.08 ± 0.11	2.12 ± 0.068	1.4 ± 0.2	2.34 ± 0.035
STYLPKLISAFDDLEVE [RRP42]	2.63 ± 0.051	2.75 ± 0.042	2.58 ± 0.05	2.74 ± 0.032
QQPQTNTAPGLGNTVST [YGR119C/NUP57]	3.03 ± 0.097	3.34 ± 0.1	3.04 ± 0.073	3.06 ± 0.058
NKQIEILTDLVNYRHFK [ITC1]	2.93 ± 0.042	2.99 ± 0.036	3.03 ± 0.043	2.75 ± 0.036
GADVTNTTQDNGGDKEL [YCS4]	3.18 ± 0.12	3.19 ± 0.083	3.1 ± 0.065	3.26 ± 0.074
YLKGATGHSQGLVTAVA [FAS1]				3.86 ± 0.23
QQAQAQAQAQAQAQAQA [GAL11]	2.78 ± 0.097	3.06 ± 0.17	2.92 ± 0.081	3.12 ± 0.12
MGVRTFSQKEMAFNLLG [FAS2]	2.1 ± 0.078	1.9 ± 0.057	2.15 ± 0.083	2.21 ± 0.046
TFGKKADVTSNIDSSAQ [YOR098C/NUP1]	2.09 ± 0.058	2.23 ± 0.045	1.91 ± 0.11	2.57 ± 0.038
QTAVTCESCSTILCTPT [RPS27A]	1.93 ± 0.04	2.05 ± 0.044	1.91 ± 0.056	1.82 ± 0.04
CIKKIMENNEPAMAMED [SRB8]	3.12 ± 0.072	3.15 ± 0.079	3.13 ± 0.059	3.08 ± 0.069
APAFHTSGKVELPKKLL [SRB8]			2.93 ± 0.2	2.84 ± 0.12
IRNVLVTVDQYVNVAIS [SSN2]	1.21 ± 0.044	1.25 ± 0.058	1.29 ± 0.089	1.39 ± 0.058
LVKDRKFLREVFVDGEA [RPO21]	3.1 ± 0.14	3.46 ± 0.27	2.62 ± 0.1	2.85 ± 0.21
TLDRNTAAETFKLFNKY [RPL8A]	3.03 ± 0.088	3.19 ± 0.068	3.08 ± 0.082	2.94 ± 0.066
NLINLSIGASIADLASL [YCS4]	2.45 ± 0.055	2.44 ± 0.052	2.39 ± 0.071	2.69 ± 0.042
LQCPMLYVESTGKFVLQ [CSN12]	2.34 ± 0.12	2.98 ± 0.12	2.43 ± 0.15	2.68 ± 0.1
EKGKKVTGFKDEVLETV [RPS1A]	1.32 ± 0.13	1.31 ± 0.1		1.37 ± 0.1
IDHSDESNRQSVIVDSK [ESC2]	3.18 ± 0.13	3.27 ± 0.077	3.08 ± 0.093	3.51 ± 0.15
YDTTPLLDTNSLEENAM [SKI6]	3.08 ± 0.12	2.96 ± 0.082	2.97 ± 0.15	2.88 ± 0.078
MAKKEGTPKTDSFIFDG [MED4]	3.43 ± 0.13	3.22 ± 0.15	2.94 ± 0.17	3.28 ± 0.092
GNIFADLLPNSFAKLVP [SMC2]	2.36 ± 0.045	2.86 ± 0.04	2.58 ± 0.05	2.62 ± 0.043
DERSQGEKNFTSAHLKL [SMC4]	3.17 ± 0.16	3.4 ± 0.13	3.14 ± 0.076	3.36 ± 0.11
NAYGFIEWCSRCNDNLM [YJL039C/NUP192]	3 ± 0.079	2.54 ± 0.088	2.75 ± 0.083	2.24 ± 0.078
YLIVAGVDPTGSHLFSI [PUP1]	1.84 ± 0.081	2.24 ± 0.085	1.94 ± 0.14	2.09 ± 0.068

Sequence	protein stability index (doa10∆)	protein stability index (pdr5∆)	protein stability index (san1∆)	protein stability index (ubr1∆)
ACSSSGRETILSNFNAD [SIR3]	2.39 ± 0.037	2.16 ± 0.04	2.44 ± 0.045	2.75 ± 0.042
NKIINWEISNPDFLSKY [NUT1]	2.06 ± 0.047	2.41 ± 0.045	2.11 ± 0.11	1.8 ± 0.05
LDGVSYLHQNWVLHRDL [SSN3]	2.34 ± 0.11	2.11 ± 0.081	2.77 ± 0.19	2.24 ± 0.087
GAISAVAATNTPIIFIG [SRP54]	2.85 ± 0.085	3.42 ± 0.17	2.69 ± 0.073	2.66 ± 0.086
DNDSLTDLESLSSGESN [SIR4]	3.15 ± 0.096	3.31 ± 0.12	3.07 ± 0.074	3.09 ± 0.073
FLNHAFDYMNRYWVQKE [CDC53]	2.1 ± 0.056	2.48 ± 0.056	1.89 ± 0.067	1.94 ± 0.046
LSLTTVPCDRIEKSRLF [SNF6]	2.51 ± 0.065	2.64 ± 0.076	2.66 ± 0.053	2.29 ± 0.044
QGRRNSRNFSTRDEETT [SIR4]	3.04 ± 0.064	3.11 ± 0.055	3.12 ± 0.041	2.98 ± 0.041
DYGEEIKSGVAKLESLL [MTW1]	3.26 ± 0.24	3.11 ± 0.12	3.37 ± 0.13	3.4 ± 0.087
KRQELEEASQQQQLQQN [MED2]	2.75 ± 0.056	2.65 ± 0.083	2.48 ± 0.059	2.63 ± 0.061
SEHFDVNDNPDIEAGDD [DIS3]	2.81 ± 0.058	2.93 ± 0.058	2.72 ± 0.076	3.08 ± 0.045
ELNDIDTKIDQVNGNIR [SMC3]	3.34 ± 0.22	3.34 ± 0.12	3.07 ± 0.13	3.2 ± 0.1
LVTIEGALIHKAGLMTG [SMC1]	2.99 ± 0.14	2.71 ± 0.12	2.92 ± 0.13	2.95 ± 0.12
GFEQVKIALGSPIVNVL [RRI2]	1.56 ± 0.15	2.78 ± 0.2	1.48 ± 0.25	2.52 ± 0.12
MINGRKLIKFETRNEDD [FAS1]	2.9 ± 0.071	2.81 ± 0.068	3.07 ± 0.047	2.81 ± 0.044
HNSHLSLNYKFTTNKSK [SRP21]	2.46 ± 0.073	2.07 ± 0.052	2.38 ± 0.076	2.41 ± 0.05
ANEEPNTENVESVPTPA [ITC1]	2.87 ± 0.14	2.91 ± 0.11	2.98 ± 0.26	3.18 ± 0.15
GLTNWAAAYATGLLIAR [RPL5]	1.39 ± 0.18	1.26 ± 0.084	1.14 ± 0.13	1.1 ± 0.027
KREEKAMTIYWDDHTKK [CDC53]	2.5 ± 0.076	2.2 ± 0.068	3.45 ± 0.072	2.25 ± 0.051
GQRPDRATTYEKLTMVF [SIN4]	1.27 ± 0.087	1.48 ± 0.067	1.53 ± 0.19	1.14 ± 0.11
PPTTSNLIIFLYKFNGW [YML103C/NUP188]	1.76 ± 0.046	2.26 ± 0.045	2.32 ± 0.058	2.53 ± 0.051
AHTASVGVVFGSGAANE [COR1]	3.23 ± 0.12	3.29 ± 0.084	3.07 ± 0.1	3.39 ± 0.12
NDLVKARDLLDDLEKTL [RPN9]	2.97 ± 0.092	3.43 ± 0.097	3.12 ± 0.091	3.15 ± 0.087
DGNNANYIYAGYENGML [RPN14]	2.73 ± 0.1	2.75 ± 0.094	2.79 ± 0.083	2.96 ± 0.069
LFQELSKVVDDMPSLRL [GRR1]	3.2 ± 0.18	1.61 ± 0.11	2.22 ± 0.12	2.31 ± 0.085
ENTVGLISGAGANPRVL [RPN10]	1.72 ± 0.052	1.46 ± 0.057	1.86 ± 0.085	1.4 ± 0.044
